Reference: patent US20130071835A1, “Qualitative and Quantitative Analytical Method for Analyzing the Activity Type of an Enzyme that is Activated by Proteolysis” (Nanoenteck, Inc., priority 2010, published 2013)

Molecular target: T1, Lp-PLA2 (Homo sapiens, UniProt Q13093)
T1 construct: purchased diaDexus, USA
T1 sequence (Q13093 22-441): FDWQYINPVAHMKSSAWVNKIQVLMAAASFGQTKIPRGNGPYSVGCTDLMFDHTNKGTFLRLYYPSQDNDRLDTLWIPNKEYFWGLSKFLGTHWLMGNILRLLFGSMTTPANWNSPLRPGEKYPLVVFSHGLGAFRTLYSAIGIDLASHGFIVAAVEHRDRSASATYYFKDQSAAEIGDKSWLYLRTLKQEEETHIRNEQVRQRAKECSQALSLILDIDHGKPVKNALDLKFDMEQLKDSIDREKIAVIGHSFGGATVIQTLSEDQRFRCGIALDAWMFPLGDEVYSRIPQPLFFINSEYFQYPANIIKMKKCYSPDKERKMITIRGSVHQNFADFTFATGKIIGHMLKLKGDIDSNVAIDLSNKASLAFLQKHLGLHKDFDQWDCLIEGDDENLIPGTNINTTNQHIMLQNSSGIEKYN
Experiment: Competition binding of Lp-PLA2 to Apo C-III-coated microplate (ELISA, absorbance)
Method: After Apo C-III was diluted with 100 mM carbonate buffer (pH 9.5) at a concentration of 2 μg/ml, the Apo C-III solution (100 μl) was added to each well in a microplate, which was coated at 37° C. incubator for 2 hrs. And then, the Apo C-III solution was removed from each well and 200 μl PBS supplemented with 1% BSA was added to each well. After incubation at 37° C. incubator, the solution was removed from each well that was then dried.
Tween-20 (0.05%)-containing PBS buffer (pH 7.4) was used for dilution, reaction and washing buffer in the experiment. Each 100 μl Lp-PLA2 (1 μg/ml) was added to Apo C-III-coated microplate well (FIG. 2a). Or, Lp-PLA2 and Apo C-III was diluted at a final concentration of 1 μg/ml and 0.5 μg/ml, respectively, and the solution (100 μl) was added to Apo C-III-coated microplate well (FIG. 2b). Each reaction preparation was incubated at 37° C. incubator for 50 min, and then removed from the well, followed by washing 2 times. Anti-Lp-PLA2 antibody solution (100 μl) diluted to 5 μg/ml was added to the washed well and incubated at 37° C. incubator for 50 min. The solution was removed and each well was washed 2 times. […] After 100 μl H2SO4 (2 N) was added to each washed well, the absorbance was measured. The measurement of absorbance utilized TECAN Infinit M200: wavelength measurement, 450 nm; and calibration wavelength, 620 nm. […]

Substance: Apolipoprotein C-III [Apo C-III]
- Final signal intensity (absorbance: Ab 620 nm), mean (Lp-PLA2 1 μg/ml plus free Apo C-III 0.5 μg/ml added to Apo C-III-coated microplate well, Lp-PLA2 alone gave 0.208): 0.130
- reduction of signal compared with sample without free Apo C-III (Lp-PLA2 1 μg/ml plus free Apo C-III 0.5 μg/ml, Apo C-III-coated microplate): 37.6%
